Experimental data: the nanobody polyreactivity screen of Harvey et al. (2022)

Assay: yeast display, Sf9 membrane polyspecificity reagent, FACS + sequencing; frameworks hold sequencing errors
Outline: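 In a synthetic yeast display library (Saccharomyces cerevisiae BJ5465), nanobody expression was induced with galactose for 36–48 hours. FACS gates were set low and high (top ~1%) using anti-HA fluorescence for expression and streptavidin fluorescence for binding of the Sf9 membrane reagent. Each polyreactivity label is drawn from the gate of origin.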

Row | Sequence | polyreactivity (PSR sort gate)
1 | QVQLVESGGGLVQAGGSLRLSCAASGSIFWGYAMGWYRQAPGKERELVATITYGGDSTYYADSVKGRFTISRDNANNTVFLQMNSLKTEDTAVYYCNVGVEPYDYDYWGQCTQVTVSS | low polyreactivity
2 | QVQLVESGGGLVQAGGSLRLSCAASGFTFFTYTMGWYRQAPGKERELVAAISRDGARTNYADSVKGRFTISRDNAKNTVYLQMNSLKPEDTAVYYCAAPTSHLYTEKYDYWGQGTQVTVSS | high polyreactivity
3 | QVQLVESGGGLVQAGGSLRLSCAASGSTFKRYAMGWYRQAPGKERELVASISSGGSTNYVDSVKGRFTISRDNAKNTVYLQMNSLKPEDTAVYYCAVSYRSFRYYWERYYSWGQGTQVTVSS | high polyreactivity
4 | QVQLVESGGGLVQAGGSLRLSCAASGGIFYGYAMGWYRQAPGKERELVAAISDSGGSTYYADSVKGRFTISRDNAKNTVYLQMNSLKPEDTAVYYCATDAPVGGYVSEGDYWGQGTQVTVSS | low polyreactivity
5 | QVQLVESGGGLVQAGGSLRLSCAASGSTFPYYAMGWYRQAPGKERELVAAISSSGGSTYYADSVKGRFTISRDNAKNTVYLQMNSLKPEDTAVYYCATSSRYVDGYEMDYWGQGTQVSVSS | high polyreactivity
6 | QVQLVESGGGLVQAGGSLRLSCAASGRIFSNYAMGWYRQAPGKERELVAAISRGGGRTFYADSVKGRFTISRDNAKNTVYLQMNSLKPEDTAVYYCATRSYYVKGDYWGQGTQVTVSS | high polyreactivity
7 | QVHVVESGGGLVQAGGSLRLSCAASGFTFGNNAIGWYRQAPGKERELVAGISRTGGRTYYADSVKGRFTISRDNAMNTVFLPMNSLKPEDTAVFYCAKAFRGHYWGQGTQVNVSS | high polyreactivity
8 | QFQLVESGGGLVQAGGSLRLSCAASGSTFIYYAMGWYRQAPGKDRELVAAISGCGASTYYADSVKGGFTISRDNAKNTVYLQMNSLKPEDTAVYYCHFYRWRGYDYWGQGTQVTVSS | high polyreactivity
9 | QVQLVESAGGLVQAGGSLRLSCPASGSTFTFNAMGWYRQAPGKERELVADITSGGRTNYADSVKGRFTISRDNAKNTVYLQMNSLKPEDTAVYYCAARWWAHEYPGYDSWGQGTQVTVSS | low polyreactivity
10 | QVQLVESGGGLVQAGGSLRLSCAASGSIFDINAMGWYRQAPGKERELVADISWSGGRTYYADSVKGRFTISRDNAKNTVYLQMNSLKPEDTAVYYCNAQDSRFWYAEYDYWGQGNQVTVSS | low polyreactivity
11 | QDQLVESGGGLVQAGGSLRLSCAASGRTFNYYGMGWYRQAPGKERELVAAISRGGTTNYADSVKGRFTISRDNAKNTVYLQMNSLKPEDTAVYYCAKGRSHWHSYQYVRPNYDYLGQGTQVTVSS | high polyreactivity
12 | QVQLVESGGGLVQAGGSLRLSCAAPGSTIRANAMGWYRQAPGKEMELVAAITKNGGSTYYADSVKGRFTISRDNAKNTVYLQMNSLKPEDTAVYYCAARRSSRRPPYYYWGQGTQVTVSS | high polyreactivity
13 | QVQLVESGGGLVQAGGSLRLSCAASGSIIVNYDMGWYRQAPGKERELVAAISSGGSTKYADSVKGRFTISRDNAKNTVYLQMNSLKPEDTAVYYCAAGKHVTFSYEYRMDYWGQGTQVTVSS | low polyreactivity
14 | QVQLVESGGGLVQAGGSLRLSCAASGSIFNPNAMGWYRQAPGKERELLAAIDSGGTTDYADSVKGRFTISRDNAKNTVYLQMNSLKPEVTAVYYCNADRTVTSSSFTDYDYWGQGTQVTVSS | high polyreactivity
15 | QVQLVESGGGLVQAGGSHRLSCAASGIIFYDNTMGWYRQAPGKERELVASITWRGGSTYYADSVKGRFTISRDNAKNTFYLQMNSLKPEDTAVYYCNADSSDDYDYWGQGTQVTVSS | low polyreactivity
16 | QVQLVESGGGLVQAGGSLRLSCAASGNTFVTKAMGWYRQAPGKERELVAAINSSGGSTYYADSVKGRFTISRDNAKNTVYLQMNSLKPEDTAVYYCAADPLGITSGYGYWGQGTQVTVSS | low polyreactivity
17 | QVQLVESGGGLVEAGGSHRLTCAASGSTFGWYPIGWYRQAPGTERELVAGINSRGGSTYYADSVKGRFTISRDNAQNTVYLQMNSLKPEDTAVYYCNTVWASRRAHDYWGQGTQVTVSS | high polyreactivity
18 | QVQLVESGGGLVQAGGSLRLSCAASGSIFYVYAMGWYGQAPGKDRELVASISWGDSSTYYADSVKGRFTISRDTAKNTVYLQMNSLKPEDTAVYYCAADEYRQYALYDYWGQGTQVTVSS | low polyreactivity
19 | QVQLVESGGGLVQAGGSLRLSCAASGRTYRWYVMGWYIQAPGTERELVAAISQSGGSTYYADSVKGRFTISRDNAMNTVYLEMYSLKPEDTAVYYCNAYPRYGGYAYGRGDYWGQGTQVTVSS | high polyreactivity
20 | QVQVVESGGGLVQAGGSLRLSCAASGRIFGYNAMGWYRQAPGKERELVAAISSGGSTYYADSVKGRFTISRDNAKNTVYLLMHSLKPEDTAVYYCAAEDYPPYPTVYDYWGQGTQVTVSS | low polyreactivity
21 | QVQLVESGGGLVQAGGSLRLSCAASGSIFPVYAMGWYRQAPGKERELVAAISLRAGNTYYADSVKGRFTISRDNAKNTVYLQMNSLKPEDTAVYYCAVEWFRSTTIFDYWGQGTQVTVSS | high polyreactivity
22 | QVQLVESGGGLVQAGGSLRLSCAASGRTFRYYAMGWYRQAPGKERELVASITKRGGSTYYADSVKGRFTISRDNAKNTVYLQMNSLKPEDTAVYYCNTRTGSFFQGYYWGQGTQVTVSS | high polyreactivity

Row | Sequence | polyreactivity (PSR sort gate)
23 | QVQLAESGGGLVQAGGSLRLSCAASGSIFRLNAMGWYRQAPGKERELVAAINSGTNTYYADSVKGRFTISRDNAKNTVYLQMNSLKPEDTAVYYCAADWNDWHYDYWGQGTQVTVSS | low polyreactivity
24 | QVQLVESGGGLVQAGGSLRLSCAASGSTFDQYGMGWYRQAPGKERELVAAITSVGGTNYADSVKGRFTISRDNAKNTVYLKMNSLKPEDTAVYYCAAGSVSQYDSWGQGTQVTVSS | low polyreactivity
25 | QVQLVESGGGLVQAGGSLRLSCSASGSTIPVYAMGWYRQPPGKERELVAAITGSGARTYYADSVKGRFTFSRDNAKNTVYLQMNSLKPEDTAVYYCAKRTVIAVYGFPYRYGMNYWGQGTQVTVSS | high polyreactivity
26 | QVQLVDSGGGLVQAGASLRLSCAASGRIITAYYAMGWYRQAPGKERELVASISSSGTSTYADSVKGRFTISRDYAKNTVYLQMKSLKPEDTAVYYCATRKQRTRRYDYGYWGQGTQVTVSS | low polyreactivity
27 | QVQLVESGGGLVQAGGSLRLSCAASGRTSAWYAMGWYRQAPGKERDLVATISYTGGRTYYADSVKGRFTISRDNAKNTVYLQMNSLKPEDTAVYYCAKRYTSWFSSKFDYWGQGTQVTVSS | high polyreactivity
28 | QVQLVESGGGLVQAGGSLRLSCAASGLIFARNALGWYRQAPGKERELVAAISWRSGRTYYADSVKGRFTISRDNAKNTVYLQMNSLKPEDTAVYYCAATSRTSWYGYWGQGTQVTVSS | high polyreactivity
29 | QVQLVESGGGLVQAGGSLRLSCAASGLIFRWYAMGWYRQAPGKERELVAAISRRGGTTNYADSVKGRFTISRDNAKNTVYLQMNSLKPEDTAVYYCAADYQSVGGAEYDYWGQGTQVTVSS | high polyreactivity
30 | QVQLVESGGGLVQAGGSLRLSCAASGITFVAYAMGWYRQAPGKERELVAAISKSGGNTYYADSVKGRFTISRDNAKNTVYLQMNSLKPEDTAVYYCAAPRRYAWGQVNYWGQGTQVTVSS | high polyreactivity
31 | QVQLVESVGGLVQAGGSLRLICAASGFIFWDYAMGSDRQAPGKERELVAAISDSGGDTYYAESVKGRFTISRDNAKNTVYLQMNSLKPEDTAVYFCAADLGRNYDYWGQGTQVTVLS | low polyreactivity
32 | QVQLVESGGGLVQAGGSLRLSCAASGRIFVRNAMGWYRQAPGKERELVAAITSGAGSTNYADSVKGRFTISRDNAKNTVYLQMNSLKPEDTAVYYCAADYETGAVSILDDYWGQGTQVTVSS | low polyreactivity
33 | QLQLVDSGGGLVQAGGSLRLSCAASGKTISSYAMGWYRQAPGKEREFVAAISRGARTYYADSVKGRFTISRDNAKNTVYLQMNSLKPEDTAVYYCATRWPHYGGYYYWGQGTQVTVSS | high polyreactivity
34 | QVQLVESGGGLVQAGGSLRLSCAASGSIIQVYAMGWYRQAPGKERELVASITRTGGSTYYADSVKGSFTISRDNAKNTVYLQMNSLKPEDTAVYYCAARRVTSPFGSDSWGQGTQVTVSS | low polyreactivity
35 | QVQLVESGGGLVQAGGSLRLNCAASGITCEYYAMGWYREAPGKERDLVAAISWSGGSTYYADSVKGRFTNSRDNANNTVYLQINSLKTEDTAVYDFYAVGFTYLDLYGYWGQGTQLTVSS | high polyreactivity
36 | QVQLVESGGGLVQAGGSLRLSCAASGSIFYYNAMGWYRQAPGKERELVAAIRRSGGRTYYADSVKGRFTISRDNAKNTVYLQMNSLKPEDTAVYYCAAVHYDRVTGQVDHDYWGQGTQVTVSS | high polyreactivity
37 | QVQLVESGGGLVQAGVSHRLSCAASGRTFPGNAMGWYRQAPGKEREFVAAISYSGGRTYYADSVKGRFTISRDNAKNTVYLLMNSLKPEDTAVYYCAKRIVQPSVAAYYYWGLGTQVTVSS | high polyreactivity
38 | QVQLVESGGGLVQAGGSLRLSCAASGLTFEHNAMGWYRQAPGKEREFVAVISWRGTSTYYADSVKGRFTISRDNAKNTVYLQMNSLKPEDTPVYYCATRYYGDDGYRYDHWGQGTQVTVSS | high polyreactivity
39 | QVQLVESGGGLVQAGGSLRLSCAASRFIFGAYTMGWYRQAPGKERELVAAISWSGDSTYYADSVKGRFTISRDNAKNTVYLQMNSLKPEDTAVYYCAAVWYWSGFDYWGQGTQVTVSS | high polyreactivity
40 | QVQLVESGGGLVQAGGSLRLSCAASGITFQNYAMGWYRQAPGKERELVAGISYSGGSTYYADSVKGRFTISRDHAKNTVFLLMNSLKPEDTAVYDCAATRWYSYRRYYYWGQGTQVTVSS | high polyreactivity
41 | QVQLVESGGGLVQAGGSLRLSCAASGSTFTLYARGWYRQAPGKERELVATITGSGGSTNYADSVKGRFTISRDNAKNTVYLQMNSLKPEDTAVYYCAADYAVYSFTEFNYWGQGTQVTVSS | high polyreactivity
42 | QVQLVESGGGLVQAGGSLRLSCAASGRIFTGNVMGWYRQAPGKERELVAAITYRRGSTYYADSVKGRFTISRDNAKNTVYLQMNSLKPEDSAVYYCNTGWDPYGYDYWGQGTQVTVSS | low polyreactivity
43 | QVQIVESGGGLVHAGGSLRLSCAASGRNIPPYVIAWYRQAPGKEREMVAAMSWRGGNTYYADSVKGRFTISRDNAKNTVYLQMNSLKPEDTAVYYCAAKAYRRYSIPPYGYWGQGTQVTVSW | low polyreactivity
